Reference: patent publication US20150098933

How the values were obtained:
[1] = target: T1, full-length rhLAL produced in HEK293 cells
T1 chain: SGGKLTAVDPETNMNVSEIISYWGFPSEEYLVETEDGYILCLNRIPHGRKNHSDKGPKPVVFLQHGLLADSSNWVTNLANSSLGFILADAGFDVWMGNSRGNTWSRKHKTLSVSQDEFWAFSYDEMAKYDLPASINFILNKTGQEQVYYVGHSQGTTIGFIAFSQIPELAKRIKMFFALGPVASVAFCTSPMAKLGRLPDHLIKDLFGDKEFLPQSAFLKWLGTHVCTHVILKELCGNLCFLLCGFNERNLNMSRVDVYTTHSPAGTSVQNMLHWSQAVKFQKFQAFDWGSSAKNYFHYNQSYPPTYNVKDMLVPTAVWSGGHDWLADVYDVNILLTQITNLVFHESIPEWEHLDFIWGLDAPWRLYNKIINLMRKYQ

[2] = target: T2, ekLAL (rhLAL containing the FLAG affinity and ek cleavage site, designed to give TLAL-G77), produced in HEK293 cells
T2 chain: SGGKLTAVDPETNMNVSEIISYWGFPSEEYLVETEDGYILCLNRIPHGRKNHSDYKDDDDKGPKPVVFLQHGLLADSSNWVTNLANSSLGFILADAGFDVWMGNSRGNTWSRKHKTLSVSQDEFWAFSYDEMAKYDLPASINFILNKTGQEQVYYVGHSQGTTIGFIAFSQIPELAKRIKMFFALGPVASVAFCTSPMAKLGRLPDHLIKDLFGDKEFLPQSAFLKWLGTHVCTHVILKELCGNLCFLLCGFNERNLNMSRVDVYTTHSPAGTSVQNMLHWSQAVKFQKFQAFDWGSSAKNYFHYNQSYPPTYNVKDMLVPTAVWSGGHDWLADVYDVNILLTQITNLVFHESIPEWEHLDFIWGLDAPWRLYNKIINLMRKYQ

[3] = target: T3, ekLAL (rhLAL containing the FLAG affinity and ek cleavage site, designed to give TLAL-K76), produced in HEK293 cells
T3 chain: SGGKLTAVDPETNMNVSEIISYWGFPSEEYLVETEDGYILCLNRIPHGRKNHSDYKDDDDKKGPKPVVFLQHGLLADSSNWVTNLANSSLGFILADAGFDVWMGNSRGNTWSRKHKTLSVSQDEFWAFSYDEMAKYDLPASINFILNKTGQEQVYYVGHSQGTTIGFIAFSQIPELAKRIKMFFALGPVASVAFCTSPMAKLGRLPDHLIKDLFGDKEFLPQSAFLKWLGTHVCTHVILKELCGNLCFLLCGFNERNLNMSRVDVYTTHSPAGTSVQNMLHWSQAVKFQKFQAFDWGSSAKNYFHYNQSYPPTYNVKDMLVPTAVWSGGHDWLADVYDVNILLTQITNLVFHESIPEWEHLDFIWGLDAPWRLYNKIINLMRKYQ

[4] = target: T4, rhLAL protein produced from transgenic chicken
T4 chain: T1 chain

B1: bovine enterokinase (EC 3.4.21.9) (protein)
chain: IVGGSDSREGAWPWVVALYFDDQQVCGASLVSRDWLVSAAHCVYGRNMEPSKWKAVLGLHMASNLTSPQIETRLIDQIVINPHYNKRRKNNDIAMMHLEMKVNYTDYIQPICLPEENQVFPPGRICSIAGWGALIYQGSTADVLQEADVPLLSNEKCQQQMPEYNITENMVCAGYEAGGVDSCQGDSGGPLMCQENNRWLLAGVTSFGYQCALPNRPGVYARVPRFTEWIQSFLH
B1 was tested, and the “proteolytic cleavage (molecular weight before and after ek digestion)” value [1] was “non-specific ek cleavage did not occur during the digestion reaction”, the “proteolytic cleavage (ek digestion, 6 days at room temperature, SDS-PAGE)” value [2] was “approximately 50% cleavage into TLAL-G77” and the “proteolytic cleavage (ek digestion, 6 days at room temperature)” value [3] was >70% cleavage into TLAL-K76. The “proteolytic cleavage (molecular weight before and after ek digestion)” value [4] was “non-specific ek cleavage did not occur during the digestion reaction”.
